The text below walks through data of patent US20240417462A1 (SHANGHAI CELGEN BIO PHARMACEUTICAL, published 2024).

Test [1] has as its target T1, recombinant human TIGIT (Human TIGIT His, Sino Biological, 10917-H08H) (human, UniProt Q495A1 22-138).
T1 construct: range 1-138; bought; also called hTIGIT
T1 sequence (looked up): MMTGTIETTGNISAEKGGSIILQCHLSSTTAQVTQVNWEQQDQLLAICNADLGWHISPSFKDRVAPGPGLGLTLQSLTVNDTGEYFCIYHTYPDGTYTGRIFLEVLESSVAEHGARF
The test is described as follows: ELISA, coated human TIGIT-His. (In general: ELISA stands for enzyme-linked immunosorbent assay.)

Test [2] has as its target T2, full-length human TIGIT expressed on CHO-K cell membrane (CHO-K-TIGIT) (human, UniProt Q495A1 22-244).
T2 construct: whole, on cells; also called CHO-TIGIT; membrane TIGIT
T2 sequence (looked up): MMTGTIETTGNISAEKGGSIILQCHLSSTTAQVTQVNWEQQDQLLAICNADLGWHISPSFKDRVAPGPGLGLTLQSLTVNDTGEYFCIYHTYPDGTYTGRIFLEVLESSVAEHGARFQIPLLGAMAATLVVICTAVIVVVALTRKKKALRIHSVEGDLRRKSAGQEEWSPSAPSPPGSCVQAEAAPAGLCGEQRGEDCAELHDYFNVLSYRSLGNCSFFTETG
In words: flow cytometry, CHO-TIGIT cells.

For test [3], the target named is T1, recombinant human TIGIT (Human TIGIT …). The test is described as follows: competition ELISA, coated TIGIT-His, CD155-mFC as competitor. The method, then:
Antigen TIGIT (Human TIGIT (His), Sino Biological, 10917-H08H) was diluted with pH 9.6 of NaHCO₃ solution into 1 μg/mL, 50 μL per well was added to a 96-well ELISA plate, and placed overnight at 4° C. in a refrigerator. The next day, after washing with PBS twice, plate was blocked with 3% BSA (100 μL per well) by incubating at 37° C. for 1.5 h, and washed 4 times with PBST.

The target is the same in test [4]. The test is described as follows: BLI, antibody captured on anti-human Fc probe, TIGIT-His in solution. The method, then:
The dissociation constant (Kd) of the human mouse chimeric TIGIT monoclonal antibody was detected by using a GATORS (ProbeLife) detection instrument and an HFC (LOT #2007065 Tray 2), Human antibody Capture probe. The human mouse chimeric TIGIT monoclonal antibody was diluted to 30 nM in a binding buffer (Q buffer [PBS (10 mM PH7.4)+0.02% Tween 20+0.2% BSA]). The recombinant human TIGIT protein was diluted in Q buffer in a 2-fold gradient to different concentrations varying in the range of 40 nM to 10 nM. A kinetic correlation determination was initiated by placing an antibody capture sensor in the continuously diluted antigen solution described above. Octet Data Acquisition software was opened and New Kinetics Experiment-Basic Kinetics mode was selected.

Test [5] has the same target. The description is as above. This is another data set of the same source.
Test [6] has the same target. Described as above. This is another data set of the same source.
The target is the same in test [7]. The test is described as follows: ELISA, recombinant human TIGIT (His) coated, anti-human-Fc-AP, OD405/490. The method, then:
(§1) Antigen hTIGIT (Human TIGIT (His), Sino Biological, 10917-H08H) was diluted into 1 μg/mL with a NaHCO₃ solution of pH 9.6, 50 μl per well was added to a 96-well ELISA plate, and placed overnight in refrigerator at 4° C.
(§2) In order to determine whether the humanized TIGIT monoclonal antibody of the present disclosure could bind to the recombinant human TIGIT protein, in vitro testing was performed. Murine antibodies and Tiragolumab (Tira) were used as positive controls. The experimental method was the same as in Example 3.1.

Test [8] has the same target. In words: competition ELISA, human TIGIT (His) coated, antibody titrated against fixed CD155, bound CD155 detected, OD450/655.
The target is the same in test [9]. The test is described as follows: competition ELISA on recombinant human TIGIT, CD155 as competitor.
The target is the same in test [10]. In words: ELISA, recombinant human TIGIT (His) coated, anti-human-Fc-AP, OD405/490. The method, then:
as §1, §2
This is another data set of the same source.

Numbering of substitutions follows the chain as printed. Several values for one entry are separate records, joined by “and”; a condition that tells them apart may be missing. Equal values may be shown once. Read-outs that look alike come from different tables or passages of the source.

B1: anti-human TIGIT human mouse chimeric monoclonal antibody 7103-01 (hFc) (antibody, V domains shown)
VH: QVQLQQPGAELVKPGASVKLSCKASGYTFISYNIYWVKQRPGQGLEWIGGVNPSNGNTNFNENFKSKATLTVDKSSSTAYMQLSSLTSDDSAVYFCTRGNYYGYEFAYWGQGTLVTVSA
VL: DIVMTQSHKFMSTSVGDRVSITCKASQHVSTAVAWYQQKPGQSPKLLIYSPSYRYTGVPDRFTGSGSGTDFTFTISSVQAEDLAVYYCQQHYSTPWTFGGGTKLEIK
notes: also called 7301-01 (hFc)
Consider B1, for which the EC50 in test [1] is 0.499 nM; in [2], 1.08 nM. The IC50 in test [3] stood at 4.03 nM. Also, the Kd is 0.574 nM in [4] and 1.73 nM in test [5]. The results for the off-rate constant (koff) in test [4] and in [5] were 0.000405 s⁻¹ and 0.000951 s⁻¹, respectively. Further, the kon in [4] was found to be 706000 M⁻¹ s⁻¹; in test [5] it was 549000 M⁻¹ s⁻¹.

B2: anti-human TIGIT human mouse chimeric monoclonal antibody 7103-04 (hFc) (antibody, V domains shown)
VH: VQLQESGAELVKPGASVKLSCRASGYTFTDYFVYWVKQRPGQGLEWIGGINPSNGGATFNEKFKNKATLTVDTSSSTAYMQLSSLTSEDSAIYYCTRGNFYGYEFAYWGQGTLVTVSA
VL: B1 VL with M11I, A34V, S93I
On to B2, for which the half-maximal effective concentration (EC50) in test [1] was 0.554 nM. Besides, in [2], the EC50 was found to be 0.867 nM. Further, the IC50 in [3] worked out at 3.3 nM. Further, in test [4], the Kd is 0.661 nM, the koff worked out at 0.000558 s⁻¹ and the kon was found to be 845000 M⁻¹ s⁻¹.

B3: anti-human TIGIT human mouse chimeric monoclonal antibody 7103-03 (hFc) (antibody, V domains shown)
VH: EVQLQQSGPELVKPGASVKISCKTSGYTFTEYTMHWVKQSHGKSLEWIGGINPNNGGTSYNQKFKGKATLTVDKSSSTAYMELRSLTSEDSAVYYCARGAYYRYDFDYWGQGTTLTVSS
VL: B1 VL with H28D, S30R, A34V, P51A
With B3, in test [1], the EC50 came out at 0.38 nM. Further, the EC50 in test [2] was 0.596 nM. Also, the IC50 in test [3] worked out at 1.46 nM. Moreover, in test [4], the Kd amounted to 1.14 nM, the koff turned out to be 0.00091 s⁻¹ and the kon was found to be 801000 M⁻¹ s⁻¹.

B4: anti-human TIGIT human mouse chimeric monoclonal antibody 7103-07 (hFc) (antibody, V domains shown)
VH: EVQVVESGGGLVKPGGTLKLSCAASGFTFSTYAMSWVRQSPEQRLEWVAEISSGGSHTFYSDTVTGRFTISRDNAQNTLYLEMNSLRSEDTAMYYCARKTLDYYALDYWGQGTSVTVSS
VL: DVQITQSPSYLAASPGETITINCRASKSISKYLAWYQEKPGKTNKLLIYSGSRLQSGIPSKFSGSGYGTDFTLTISSLEPEDFAMYYCQQHNEYPWTFGGGTKVEIK
notes: also called 7303-07 (hFc); human mouse chimeric antibody
As for B4, the EC50 in [2] was 1.35 nM and 0.927 nM; in test [7] it was 0.0095 µg/mL. Also, the IC50 in [3] amounted to 1.7 nM; in test [8] it was 0.041 µg/mL. Also, the Kd was determined as 1.72 nM in test [4] and 2.96 nM in test [6]. Besides, the koff in test [4] was found to be 0.00167 s⁻¹; in [6], 0.00169 s⁻¹. Further, the kon in test [4] was determined as 971000 M⁻¹ s⁻¹; in [6], 573000 M⁻¹ s⁻¹.

B5: anti-human TIGIT human mouse chimeric monoclonal antibody 7103-06 (hFc) (antibody, V domains shown)
VH: B4 VH with V2E, V4L, Q43K, H57Y, F59Y, Q76K, N84S, Q111H
VL: B4 VL with S26N, S28T, V104L
As for B5, in [1], the EC50 was 0.554 nM. Moreover, in test [2], the midpoint of the response, the EC50, lay at 0.873 nM. In addition, the IC50 in test [3] turned out to be 2.03 nM. Besides, in test [4], the Kd was 1.29 nM, the koff came out at 0.00139 s⁻¹ and the kon turned out to be 1.07e+06 M⁻¹ s⁻¹.

B6: humanized anti-human TIGIT monoclonal antibody P04667 (antibody, V domains shown)
VH: B4 VH with T17S, K19R, S40A, S61A, T65K, Q76K, E82Q, S88A, M93V, S114T
VL: DIQMTQSPSSVSASVGETITITCRASKSISKYLAWYQQKPGKAPKLLIYSGSRLQSGVPSRFSGSGSGTDFTLTISSLQPEDFATYYCQQHNEYPWTFGGGTKLEIK
Regarding B6, in test [9], the concentration for half-maximal inhibition (IC50) was found to be 0.631 nM. For the same molecule, in test [6], the Kd is 4.2 nM, the koff was found to be 0.00565 s⁻¹ and the kon turned out to be 1.35e+06 M⁻¹ s⁻¹. Besides, the EC50 in test [7] is 0.0125 µg/mL and 0.0836 nM. In addition, the IC50 in [8] was determined as 0.094 µg/mL.

B7: humanized anti-human TIGIT monoclonal antibody P04666 (antibody, V domains shown)
VH: B4 VH with T17S, K19R, S40A, S61A, T65K, Q76K, E82Q, S88A, M93V, S114T
VL: B6 VL with I2V, M4I, T22N
As for B7, the IC50 in test [9] amounted to 0.127 nM. Besides, in test [6], the dissociation constant Kd was determined as 2.19 nM, the koff amounted to 0.00347 s⁻¹ and the kon was determined as 1.59e+06 M⁻¹ s⁻¹. Also, in test [7], the concentration for a half-maximal effect (EC50) was 0.0137 µg/mL and 0.0915 nM. Besides, the IC50 in test [8] worked out at 0.019 µg/mL.

B8: Tiragolumab (antibody, V domains shown)
VH: EVQLQQSGPGLVKPSQTLSLTCAISGDSVSSNSAAWNWIRQSPSRGLEWLGKTYYRFKWYSDYAVSVKGRITINPDTSKNQFSLQLNSVTPEDTAVFYCTRESTTYDLLAGPFDYWGQGTLVTVSS
VL: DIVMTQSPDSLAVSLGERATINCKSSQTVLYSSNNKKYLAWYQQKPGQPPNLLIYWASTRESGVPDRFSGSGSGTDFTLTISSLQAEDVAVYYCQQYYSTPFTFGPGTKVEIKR
Consider B8, for which the EC50 in test [2] was 1.36 nM and 3.84 nM and 1.72 nM; in test [10] it was 0.0806 µg/mL; in test [7], 0.0242 µg/mL. In addition, the IC50 in test [3] is 5.24 nM; in [8], 0.116 µg/mL.

The term EC50 denotes the concentration at which the effect is half-maximal. Broadly, the IC50 is the concentration that inhibits the measured activity by half. What is called Kd is the free concentration of one partner at which half of the binding sites on the other are occupied at equilibrium, for simple one-to-one binding. One may read the koff as the rate constant with which the complex falls apart. As a reminder, the kon is the second-order rate constant of association.
